Reference: PMC3293417 (Nature Communications, 2012)
Substitutions are numbered along the chain they refer to. In names and notes the source's numbering stands. Values belong to the molecule of their own block, whether it stands above or below them.

B1: Beclin 1 coiled coil (CC) domain (residues 174–266), wild type, untagged (domain or fragment)
chain: DSEQLQRELKELALEEERLIQELEDVEKNRKVVAENLEKVQAEAERLDQEEAQYQREYSEFKRQQLELDDELKSVENQMRYAQMQLDKLKKTN
B2: CC region of mouse UVRAG (residues 228–298) (domain or fragment)
chain: TSNELKKESECLRLKILVLRNELERQKKALGREVAFLHKQQMALQDKGSAFSTEHGKLQLQKDSLSELRKE
B3: Beclin 1 CC domain MutStab E189L/A217L/E224L/A255L (domain or fragment)
chain: B1 chain with E16L, A44L, E51L, A82L
B4: CC region of rat Atg14L (residues 88–178) (domain or fragment)
chain: KQEEFQKEVLKAMEGKRLTDQLRWKIMSCKMRIEQLKQTICKGNEEMKKNSEGLLKNKEKNQKLYSRAQRHQEKKEKIQRHNRKLGDLVEK

Experiments:
[1] = target: CC region of mouse UVRAG (residues 228–298) (mouse) (UniProt Q8K245); assay: ITC
[2] = target: B4; assay: ITC
[3] = target: B2; assay: ITC
ITC = target: the molecule itself; assay: ITC
[4] = target: B1; assay: ITC
AUC = target: the molecule itself; assay: AUC
[5] = target: Beclin 1 CC domain MutM L178A/L192A (rat, UniProt Q91XJ1 174-266, L178A | L192A); assay: ITC
[6] = target: Beclin 1 CC domain MutM L178A/L196A (rat, UniProt Q91XJ1 174-266, L178A | L196A); assay: ITC
[7] = target: Beclin 1 CC domain MutM L178A/L259A (rat, UniProt Q91XJ1 174-266, L178A | L259A); assay: ITC
[8] = target: Beclin 1 CC domain MutStab E224L (rat, UniProt Q91XJ1 174-266, E224L); assay: ITC

Beclin 1 CC domain MutM L178A/L259A, sequence (Q91XJ1 174-266 L178A/L259A): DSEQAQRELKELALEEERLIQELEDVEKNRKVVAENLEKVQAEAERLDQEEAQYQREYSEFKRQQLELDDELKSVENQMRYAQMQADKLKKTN

Kd [1]: 2.24 µM
Molecule: Beclin 1 CC domain MutM L178A/L192A (from UniProt Q91XJ1 174-266) (domain or fragment)

Kd [1]: 1.14 µM
Molecule: Beclin 1 CC domain MutM L178A/L196A (from UniProt Q91XJ1 174-266) (domain or fragment)

Kd [1]: 0.07 µM
Molecule: Beclin 1 CC domain MutM L178A/L259A (from UniProt Q91XJ1 174-266) (domain or fragment)

Kd [1]: 1.44 µM | stoichiometry N [1]: 1
Molecule: Beclin 1 CC domain MutStab A217L/E224L (from UniProt Q91XJ1 174-266) (domain or fragment)

Kd [1]: 4.24 µM
Molecule: Beclin 1 CC domain MutStab A217L/E224L/A255L (from UniProt Q91XJ1 174-266) (domain or fragment)

Kd [1]: 1.13 µM
Molecule: Beclin 1 CC domain MutStab E189L (from UniProt Q91XJ1 174-266) (domain or fragment)

Kd [1]: 8.7 µM
Molecule: Beclin 1 CC domain MutStab E189L/A217L/E224L/A255L (from UniProt Q91XJ1 174-266) (domain or fragment)

Kd [1]: 1.31 µM | stoichiometry N [1]: 1
Molecule: Beclin 1 CC domain MutStab E189L/A255L (from UniProt Q91XJ1 174-266) (domain or fragment)

Kd [1]: 2.43 µM
Molecule: Beclin 1 CC domain MutStab E224L (from UniProt Q91XJ1 174-266) (domain or fragment)

Molecule: B1
stoichiometry N [2]: 1 | stoichiometry N [3]: 1 | Kd (ITC): ~89 µM

Molecule: B2
Kd [4]: 0.24 ± 0.06 µM

Molecule: B3
stoichiometry N (AUC): 4

Molecule: B4
Kd [4]: 3.22 ± 0.95 µM | Kd [5]: 4.61 ± 0.5 µM | Kd [6]: 6.85 ± 0.84 µM | Kd [7]: 1.2 ± 0.13 µM | Kd [8]: 8.85 ± 0.4 µM
